# Data: patent US20100135987A1
# Several values for one entry are separate records, joined by “and”; a condition that tells them apart may be missing. Identical values can stand only once.
# Tests used:
# [1] = molecular target: Protein A (ligand of MabSelect resin, GE Healthcare) (UniProt P38507); experiment: dynamic binding capacity of MabSelect column at 5% breakthrough, load at 300 cm/hr
# [2] = molecular target: Protein A (ligand of MabSelect resin, GE Healthcare) (UniProt P38507); experiment: dynamic binding capacity of MabSelect column at 5% breakthrough, load at 300 cm/hr, average of Exp. 1 and 2
# [3] = molecular target: Protein A (ligand of MabSelect resin, GE Healthcare) (UniProt P38507); experiment: dynamic binding capacity of MabSelect column at 5% breakthrough, 300 cm/hr to 35 mg Ab/mL resin, then 150 cm/hr
# [4] = molecular target: Protein A (ligand of MabSelect resin, GE Healthcare) (UniProt P38507); experiment: dynamic binding capacity of MabSelect column at 5% breakthrough, dual-flow rate load, average of Exp. 3 and 4
substance,measurement,setting,value
anti-IL-12 antibody (ABT-874),DBC at 5% BT (mg Ab/mL resin),[1],43.7 and 44.9
same,DBC at 5% BT (mg Ab/mL resin),[2],44.3
same,DBC at 5% BT (mg Ab/mL resin),[3],51.6 and 51.7
same,DBC at 5% BT (mg Ab/mL resin),[4],51.7
